Data on 1 substance can be found in PMC2119884.

Assay [1] concerns the target L266D mutant yeast actin (S. cerevisiae) (UniProt P60010). The assay can be described thus: sedimentation of F-actin.
Assay [2] shares this target. The assay can be described thus: light scattering.
Assay [3] shares this target. The assay can be described thus: light scattering. This is another data set of the same source.
For assay [4] the target is unchanged. The assay can be described thus: sedimentation of F-actin. The source holds these as a separate data set.
Assay [5] shares this target. The assay can be described thus: light scattering. The source holds these as a separate data set.
Assay [6] has the same target. The assay can be described thus: sedimentation of F-actin. This is another data set of the same source.
Assay [7] has the same target. The assay can be described thus: light scattering. The source holds these as a separate data set.

Values joined by “and” are separate entries in the source; they are usually repeats but may differ in a detail not shown here. Equal values may be shown once. Read-outs that look alike come from different tables or passages of the source.

With “L266D mutant yeast actin (from UniProt P60010 1-375) (natural protein)”, the actin remaining in the supernate (starting concentration 70 µM) in assay [1] came to 46.5 µM; in assay [4], 11.6 µM; in assay [6], 4.6 µM. For the same substance, the critical concentration (Cc) for polymerization in assay [2] was 11 µM; in assay [5] it was 6.5 µM; in assay [7], 1.2 µM. Moreover, the elongation rate, times slower than wild-type actin in assay [3] was 2 times and 3 times; in assay [7], 2 times and 3 times.
